One block for each binder: values may come before it.
Legend:
human CD33 S28A = human CD33 S28A (human, UniProt P20138 18-364); test: flow cytometry, alanine scan
Protocol: (§1) An alanine scan on human CD33 was performed to the determine the residues on CD33 that are involved in binding to the antibodies investigated. […] Briefly, a mutation library of CD33 was created by high-throughput, site-directed mutagenesis. Each residue was individually mutated to alanine, with alanine codons mutated to serine. The mutant library was arrayed in 384-well microplates and transiently transfected into HEK293-T. Following transfection, cells were incubated with the indicated antibodies (IgG or Fab) at concentrations pre-determined using an independent immunofluorescence titration curve on wild type CD33. […] Binding of each antibody to each mutant clone was determined in duplicates. For each point, background fluorescence was subtracted from the raw data, which were then normalized to antibody reactivity with wild type CD33.
(§2) Critical residues for antibody binding (outlined in dark grey) were residues whose mutations led to a binding of the test Abs of less than 20%. Additional secondary residues (outlined in light grey) were identified that led to a binding of the test Abs of between 20 and 40% as compared to the wild type CD33.

human CD33 N20A = human CD33 N20A (human, UniProt P20138 18-364); test: flow cytometry, alanine scan
Protocol: as §1, §2

human CD33 H45A = human CD33 H45A (human, UniProt P20138 18-364); test: flow cytometry, alanine scan
Protocol: as §1, §2

human CD33 F43A = human CD33 F43A (human, UniProt P20138 18-364); test: flow cytometry, alanine scan
Protocol: as §1, §2

human CD33 P40A = human CD33 P40A (human, UniProt P20138 18-364); test: flow cytometry, alanine scan
human CD33 P40A, sequence (P20138 18-364 P40A limits assumed): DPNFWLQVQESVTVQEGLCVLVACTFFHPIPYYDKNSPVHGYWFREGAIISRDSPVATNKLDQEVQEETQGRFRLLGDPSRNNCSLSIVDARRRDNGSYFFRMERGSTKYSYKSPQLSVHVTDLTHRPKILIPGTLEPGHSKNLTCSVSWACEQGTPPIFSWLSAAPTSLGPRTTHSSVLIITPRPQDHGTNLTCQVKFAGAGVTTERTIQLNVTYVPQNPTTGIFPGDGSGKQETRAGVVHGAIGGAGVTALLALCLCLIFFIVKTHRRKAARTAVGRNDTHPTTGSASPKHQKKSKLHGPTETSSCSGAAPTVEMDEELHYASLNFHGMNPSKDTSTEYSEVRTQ
Protocol: as §1, §2

human CD33 V37A = human CD33 V37A (human, UniProt P20138 18-364); test: flow cytometry, alanine scan
human CD33 V37A, sequence (P20138 18-364 V37A limits assumed): as the sequence (P20138 18-364 P40A limits assumed) above, with V20A, A23P counted along it
Protocol: as §1, §2

human CD33 L35A = human CD33 L35A (human, UniProt P20138 18-364); test: flow cytometry, alanine scan
human CD33 L35A, sequence (P20138 18-364 L35A limits assumed): as the sequence (P20138 18-364 P40A limits assumed) above, with L18A, A23P counted along it
Protocol: as §1, §2

human CD33 L23A = human CD33 L23A (human, UniProt P20138 18-364); test: flow cytometry, alanine scan
human CD33 L23A, sequence (P20138 18-364 L23A limits assumed): as the sequence (P20138 18-364 P40A limits assumed) above, with L6A, A23P counted along it
Protocol: as §1, §2

human CD33 C36A = human CD33 C36A (human, UniProt P20138 18-364); test: flow cytometry, alanine scan
human CD33 C36A, sequence (P20138 18-364 C36A limits assumed): as the sequence (P20138 18-364 P40A limits assumed) above, with C19A, A23P counted along it
Protocol: as §1, §2

human CD33 E27A = human CD33 E27A (human, UniProt P20138 18-364); test: flow cytometry, alanine scan
human CD33 E27A, sequence (P20138 18-364 E27A limits assumed): as the sequence (P20138 18-364 P40A limits assumed) above, with E10A, A23P counted along it
Protocol: as §1, §2

human CD33 D18A = human CD33 D18A (human, UniProt P20138 19-364); test: flow cytometry, alanine scan
human CD33 D18A, sequence (P20138 18-364 D18A limits assumed): as the sequence (P20138 18-364 P40A limits assumed) above, with D1A, A23P counted along it
Protocol: as §1, §2

human CD33 V29A = human CD33 V29A (human, UniProt P20138 18-364); test: flow cytometry, alanine scan
human CD33 V29A, sequence (P20138 18-364 V29A limits assumed): as the sequence (P20138 18-364 P40A limits assumed) above, with V12A, A23P counted along it
Protocol: as §1, §2

human CD33 F21A = human CD33 F21A (human, UniProt P20138 18-364); test: flow cytometry, alanine scan
human CD33 F21A, sequence (P20138 18-364 F21A limits assumed): as the sequence (P20138 18-364 P40A limits assumed) above, with F4A, A23P counted along it
Protocol: as §1, §2

human CD33 G34A = human CD33 G34A (human, UniProt P20138 18-364); test: flow cytometry, alanine scan
human CD33 G34A, sequence (P20138 18-364 G34A limits assumed): as the sequence (P20138 18-364 P40A limits assumed) above, with G17A, A23P counted along it
Protocol: as §1, §2

human CD33 L38A = human CD33 L38A (human, UniProt P20138 18-364); test: flow cytometry, alanine scan
human CD33 L38A, sequence (P20138 18-364 L38A limits assumed): as the sequence (P20138 18-364 P40A limits assumed) above, with L21A, A23P counted along it
Protocol: as §1, §2

human CD33 V31A = human CD33 V31A (human, UniProt P20138 18-364); test: flow cytometry, alanine scan
human CD33 V31A, sequence (P20138 18-364 V31A limits assumed): as the sequence (P20138 18-364 P40A limits assumed) above, with V14A, A23P counted along it
Protocol: as §1, §2

human CD33 V39A = human CD33 V39A (human, UniProt P20138 18-364); test: flow cytometry, alanine scan
human CD33 V39A, sequence (P20138 18-364 V39A limits assumed): as the sequence (P20138 18-364 P40A limits assumed) above, with V22A, A23P counted along it
Protocol: as §1, §2

human CD33 W22A = human CD33 W22A (human, UniProt P20138 18-364); test: flow cytometry, alanine scan
human CD33 W22A, sequence (P20138 18-364 W22A limits assumed): as the sequence (P20138 18-364 P40A limits assumed) above, with W5A, A23P counted along it
Protocol: as §1, §2

human CD33 T42A = human CD33 T42A (human, UniProt P20138 18-364); test: flow cytometry, alanine scan
human CD33 T42A, sequence (P20138 18-364 T42A limits assumed): as the sequence (P20138 18-364 P40A limits assumed) above, with A23P, T25A counted along it
Protocol: as §1, §2

human CD33 C41A = human CD33 C41A (human, UniProt P20138 18-364); test: flow cytometry, alanine scan
human CD33 C41A, sequence (P20138 18-364 C41A limits assumed): as the sequence (P20138 18-364 P40A limits assumed) above, with A23P, C24A counted along it
Protocol: as §1, §2

human CD33 T30A = human CD33 T30A (human, UniProt P20138 18-364); test: flow cytometry, alanine scan
human CD33 T30A, sequence (P20138 18-364 T30A limits assumed): as the sequence (P20138 18-364 P40A limits assumed) above, with T13A, A23P counted along it
Protocol: as §1, §2

human CD33 P19A = human CD33 P19A (human, UniProt P20138 18-364); test: flow cytometry, alanine scan
human CD33 P19A, sequence (P20138 18-364 P19A limits assumed): as the sequence (P20138 18-364 P40A limits assumed) above, with P2A, A23P counted along it
Protocol: as §1, §2

human CD33 E33A = human CD33 E33A (human, UniProt P20138 18-364); test: flow cytometry, alanine scan
human CD33 E33A, sequence (P20138 18-364 E33A limits assumed): as the sequence (P20138 18-364 P40A limits assumed) above, with E16A, A23P counted along it
Protocol: as §1, §2

human CD33 Q32A = human CD33 Q32A (human, UniProt P20138 18-364); test: flow cytometry, alanine scan
human CD33 Q32A, sequence (P20138 18-364 Q32A limits assumed): as the sequence (P20138 18-364 P40A limits assumed) above, with Q15A, A23P counted along it
Protocol: as §1, §2

human wild-type CD33 [1] = molecular target: T1, human wild-type CD33 (human, UniProt P20138 18-364); test: flow cytometry, IgG at 0.25 ug/ml on HEK293-T cells expressing CD33 against vector alone
T1 construct: also called SIGLEC3; P67
T1 sequence (P20138 18-364 limits assumed): as the sequence (P20138 18-364 P40A limits assumed) above, with A23P counted along it
Protocol: Binding of the antibodies to the transfected cells and the optimal assay conditions were evaluated in 384-well format. Detection of cellular expression was measured via high-throughput flow cytometry. Serial dilutions of each antibody were tested for immunoreactivity against cells expressing CD33 or vector alone. The optimal screening concentration for each antibody was determined based on the raw signal values and signal-to-background calculations. Each point represents the mean of four replicates.

human wild-type CD33 [2] = molecular target: T1, human wild-type CD33; test: flow cytometry, Fab at 1.00 ug/ml on HEK293-T cells expressing CD33 against vector alone
Protocol: Serial dilutions of each Fab were tested for immunoreactivity against cells expressing wild-type CD33 or vector alone. The optimal screening concentration for the Fabs was determined based on the raw signal values and signal-to-background calculations. Each point represents the mean of four replicates.

human CD33 N20A, sequence (P20138 18-364 N20A limits assumed): as the sequence (P20138 18-364 P40A limits assumed) above, with N3A, A23P counted along it
human CD33 F43A, sequence (P20138 18-364 F43A limits assumed): as the sequence (P20138 18-364 P40A limits assumed) above, with A23P, F26A counted along it
human CD33 S28A, sequence (P20138 18-364 S28A limits assumed): as the sequence (P20138 18-364 P40A limits assumed) above, with S11A, A23P counted along it
human CD33 H45A, sequence (P20138 18-364 H45A limits assumed): as the sequence (P20138 18-364 P40A limits assumed) above, with A23P, H28A counted along it

- Mean % WT Binding (human CD33 S28A): 89.4 % of WT
- Mean % WT Binding (human CD33 N20A): 92.9 % of WT
- Mean % WT Binding (human CD33 H45A): 87.8 % of WT
- Mean % WT Binding (human CD33 F43A): 34.6 % of WT
- Mean % WT Binding (human CD33 P40A): 55.5 % of WT
- Mean % WT Binding (human CD33 V37A): 111 % of WT
- Mean % WT Binding (human CD33 L35A): 97.2 % of WT
- Mean % WT Binding (human CD33 L23A): 41.4 % of WT
- Mean % WT Binding (human CD33 C36A): 110 % of WT
- Mean % WT Binding (human CD33 E27A): 92.6 % of WT
- Mean % WT Binding (human CD33 D18A): 39.5 % of WT
- Mean % WT Binding (human CD33 V29A): 112 % of WT
- Mean % WT Binding (human CD33 F21A): 88.1 % of WT
- Mean % WT Binding (human CD33 G34A): 100 % of WT
- Mean % WT Binding (human CD33 L38A): 105 % of WT
- Mean % WT Binding (human CD33 V31A): 105 % of WT
- Mean % WT Binding (human CD33 V39A): 79.2 % of WT
- Mean % WT Binding (human CD33 W22A): 3.8 % of WT
- Mean % WT Binding (human CD33 T42A): 36.6 % of WT
- Mean % WT Binding (human CD33 C41A): 4.5 % of WT
- Mean % WT Binding (human CD33 T30A): 104 % of WT
- Mean % WT Binding (human CD33 P19A): 87.4 % of WT
- Mean % WT Binding (human CD33 E33A): 90 % of WT
- Mean % WT Binding (human CD33 Q32A): 91.3 % of WT
B1: Refmab #6 (antibody, V domains shown)
VH: QVQLQQPGAEVVKPGASVKMSCKASGYTFTSYYIHWIKQTPGQGLEWVGVIYPGNDDISYNQKFQGKATLTADKSSTTAYMQLSSLTSEDSAVYYCAREVRLRYFDVWGQGTTVTVSS
VL: EIVLTQSPGSLAVSPGERVTMSCKSSQSVFFSSSQKNYLAWYQQIPGQSPRLLIYWASTRESGVPDRFTGSGSGTDFTLTISSVQPEDLAIYYCHQYLSSRTFGQGTKLEIK
notes: The alanine scan used IgG or Fab

- Signal:Background (human wild-type CD33 [1]): 44 signal:background ratio
B2: Refmab #1 (antibody, human IgG1, V domains shown)
VH: EVQLVQSGAEVKKPGSSVKVSCKASGYTITDSNIHWVRQAPGQSLEWIGYIYPYNGGTDYNQKFKNRATLTVDNPTNTAYMELSSLRSEDTAFYYCVNGNPWLAYWGQGTLVTVSS
VL: DIQLTQSPSTLSASVGDRVTITCRASESLDNYGIRFLTWFQQKPGKAPKLLMYAASNQGSGVPSRFSGSGSGTEFTLTISSLQPDDFATYYCQQTKEVPWSFGQGTKVEVK
notes: Full-length MAb format, human IgG1; also called hP67.6

- Signal:Background (human wild-type CD33 [2]): 12 signal:background ratio
B3: Refmab #3 Fab fragment (Fab, V domains shown)
VH: QVQLVQSGAEVKKPGSSVKVSCKASGYTFTDYNMHWVRQAPGQGLEWIGYIYPYNGGTGYNQKFKSKATITADESTNTAYMELSSLRSEDTAVYYCARGRPAMDYWGQGTLVTVSS
VL: DIQMTQSPSSLSASVGDRVTITCRASESVDNYGISFMNWFQQKPGKAPKLLIYAASNQGSGVPSRFSGSGSGTDFTLTISSLQPDDFATYYCQQSKEVPWTFGQGTKVEIK
